Source: the supplement of paper PMC10065799, “High-throughput profiling of sequence recognition by tyrosine kinases and SH2 domains using bacterial peptide display” (eLife, 2023)

Legend:
SHP2-C SH2 = assay: SH2 binding enrichment of the phosphorylated peptide, bacterial display (enrichment ratio); higher = better substrate or ligand; peptides without Tyr show the background
c-Src SH2 = assay: as above
Grb2 SH2 = Grb2 SH2 (UniProt P62993); assay: as above
MERTK = MERTK (UniProt Q12866); assay: phosphorylation enrichment, bacterial display (enrichment ratio); higher = better substrate or ligand; peptides without Tyr show the background
Jak2 = Jak2 (UniProt O60674); assay: as above
FGFR3 = FGFR3 (UniProt P22607); assay: as above
AncSZ = assay: as above
EPHB2 = EPHB2 (UniProt P29323); assay: as above
Fer (mouse) = assay: as above
EPHB1 = EPHB1 (UniProt P54762); assay: as above
Fes = Fes (UniProt P07332); assay: as above
c-Abl (mouse) = assay: as above
c-Src = assay: as above
FGFR1 = FGFR1 (UniProt P11362); assay: as above
Hck = Hck (UniProt P08631); assay: as above
Fyn = Fyn (UniProt P06241); assay: as above
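Wherever SH2 binding enrichment of the phosphorylated peptide, bacterial display is given: peptide library displayed on the E. coli surface as eCPX fusions, selected cells deep-sequenced, score is each peptide's frequency after selection divided by its frequency in the input.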
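Wherever phosphorylation enrichment, bacterial display is given: 11-residue human phosphosite peptides and single-mutation variants displayed on the E. coli surface, counted by deep sequencing, each peptide's frequency after selection divided by its frequency in the unselected input library; frequency after pTyr selection over input frequency; kinase dosed for 20-30% of maximal phosphorylation in three min.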

MERTK, sequence (Q12866 whole entry, looked up): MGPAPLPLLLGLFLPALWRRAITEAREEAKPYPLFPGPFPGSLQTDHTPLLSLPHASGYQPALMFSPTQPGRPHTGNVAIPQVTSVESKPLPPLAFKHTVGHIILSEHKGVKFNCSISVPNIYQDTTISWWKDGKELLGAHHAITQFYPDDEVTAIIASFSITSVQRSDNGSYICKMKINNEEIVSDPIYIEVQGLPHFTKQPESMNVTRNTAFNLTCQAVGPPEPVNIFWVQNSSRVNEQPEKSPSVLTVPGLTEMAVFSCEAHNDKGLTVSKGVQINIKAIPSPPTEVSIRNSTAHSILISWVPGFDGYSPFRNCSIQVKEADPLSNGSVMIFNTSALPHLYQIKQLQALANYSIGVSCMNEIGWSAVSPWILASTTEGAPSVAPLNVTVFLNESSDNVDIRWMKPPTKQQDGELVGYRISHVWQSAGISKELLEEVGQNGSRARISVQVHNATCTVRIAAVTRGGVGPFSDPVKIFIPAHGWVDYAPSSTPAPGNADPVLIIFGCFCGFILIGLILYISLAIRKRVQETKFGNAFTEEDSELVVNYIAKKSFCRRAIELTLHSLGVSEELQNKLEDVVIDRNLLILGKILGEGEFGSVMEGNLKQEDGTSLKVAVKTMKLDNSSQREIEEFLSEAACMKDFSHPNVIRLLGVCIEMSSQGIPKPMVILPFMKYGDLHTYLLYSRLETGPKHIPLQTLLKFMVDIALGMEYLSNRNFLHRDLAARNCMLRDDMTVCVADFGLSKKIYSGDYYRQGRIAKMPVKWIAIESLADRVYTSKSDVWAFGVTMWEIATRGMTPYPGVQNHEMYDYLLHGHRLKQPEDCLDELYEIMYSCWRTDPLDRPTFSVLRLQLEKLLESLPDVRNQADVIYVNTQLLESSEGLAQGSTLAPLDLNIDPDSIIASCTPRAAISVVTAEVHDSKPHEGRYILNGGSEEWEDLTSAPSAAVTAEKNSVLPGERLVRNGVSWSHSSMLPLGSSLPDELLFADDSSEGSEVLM
Jak2, sequence (O60674 whole entry, looked up): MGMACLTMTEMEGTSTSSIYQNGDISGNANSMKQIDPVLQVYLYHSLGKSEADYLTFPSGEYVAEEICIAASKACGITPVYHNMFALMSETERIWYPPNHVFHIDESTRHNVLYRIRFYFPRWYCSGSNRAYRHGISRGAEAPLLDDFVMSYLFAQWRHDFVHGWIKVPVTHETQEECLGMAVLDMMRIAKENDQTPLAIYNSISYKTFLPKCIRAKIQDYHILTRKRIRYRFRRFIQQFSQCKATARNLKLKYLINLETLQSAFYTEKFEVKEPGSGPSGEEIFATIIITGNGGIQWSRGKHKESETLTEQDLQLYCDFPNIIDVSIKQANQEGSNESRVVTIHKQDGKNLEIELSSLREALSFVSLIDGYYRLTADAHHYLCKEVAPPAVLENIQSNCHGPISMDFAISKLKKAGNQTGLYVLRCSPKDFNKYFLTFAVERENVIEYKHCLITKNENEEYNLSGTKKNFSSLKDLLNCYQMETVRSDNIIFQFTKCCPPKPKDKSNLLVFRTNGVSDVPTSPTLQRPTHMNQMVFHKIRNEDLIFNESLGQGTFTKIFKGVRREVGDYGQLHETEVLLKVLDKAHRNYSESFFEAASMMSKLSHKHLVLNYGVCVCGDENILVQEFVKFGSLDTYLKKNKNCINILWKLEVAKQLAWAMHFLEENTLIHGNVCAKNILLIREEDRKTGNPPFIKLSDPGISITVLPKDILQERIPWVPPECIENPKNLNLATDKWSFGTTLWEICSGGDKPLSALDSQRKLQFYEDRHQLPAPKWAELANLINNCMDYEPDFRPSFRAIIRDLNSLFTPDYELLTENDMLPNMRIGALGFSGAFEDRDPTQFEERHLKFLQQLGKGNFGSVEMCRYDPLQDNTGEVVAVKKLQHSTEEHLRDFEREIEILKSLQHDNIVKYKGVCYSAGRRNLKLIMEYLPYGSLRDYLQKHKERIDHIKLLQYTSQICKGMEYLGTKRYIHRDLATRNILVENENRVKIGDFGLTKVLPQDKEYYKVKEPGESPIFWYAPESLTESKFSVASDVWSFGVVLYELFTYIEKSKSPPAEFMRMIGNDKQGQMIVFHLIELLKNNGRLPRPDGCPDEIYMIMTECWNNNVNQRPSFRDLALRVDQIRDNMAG
FGFR1, sequence (P11362 whole entry, looked up): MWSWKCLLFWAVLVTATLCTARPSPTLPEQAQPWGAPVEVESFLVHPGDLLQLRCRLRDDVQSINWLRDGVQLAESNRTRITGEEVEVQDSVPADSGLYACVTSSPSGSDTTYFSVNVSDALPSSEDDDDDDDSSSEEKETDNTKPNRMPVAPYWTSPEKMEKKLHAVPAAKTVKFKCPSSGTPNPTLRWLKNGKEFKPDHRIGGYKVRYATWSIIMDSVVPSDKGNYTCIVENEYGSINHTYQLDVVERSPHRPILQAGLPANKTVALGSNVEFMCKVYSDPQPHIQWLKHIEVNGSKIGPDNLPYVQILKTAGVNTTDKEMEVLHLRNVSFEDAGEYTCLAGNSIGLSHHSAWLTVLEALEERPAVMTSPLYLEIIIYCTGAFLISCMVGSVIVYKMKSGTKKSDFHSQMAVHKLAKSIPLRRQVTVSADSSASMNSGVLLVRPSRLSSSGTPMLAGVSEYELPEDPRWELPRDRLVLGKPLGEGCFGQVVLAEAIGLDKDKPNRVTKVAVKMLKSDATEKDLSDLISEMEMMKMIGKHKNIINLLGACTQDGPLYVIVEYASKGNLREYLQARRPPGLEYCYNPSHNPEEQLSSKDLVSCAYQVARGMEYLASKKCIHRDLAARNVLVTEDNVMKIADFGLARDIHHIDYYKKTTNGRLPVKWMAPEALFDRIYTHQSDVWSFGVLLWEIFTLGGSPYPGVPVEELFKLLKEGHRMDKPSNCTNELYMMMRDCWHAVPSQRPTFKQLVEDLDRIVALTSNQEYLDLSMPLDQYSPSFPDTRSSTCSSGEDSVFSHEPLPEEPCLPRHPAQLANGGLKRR
EPHB1, sequence (P54762 whole entry, looked up): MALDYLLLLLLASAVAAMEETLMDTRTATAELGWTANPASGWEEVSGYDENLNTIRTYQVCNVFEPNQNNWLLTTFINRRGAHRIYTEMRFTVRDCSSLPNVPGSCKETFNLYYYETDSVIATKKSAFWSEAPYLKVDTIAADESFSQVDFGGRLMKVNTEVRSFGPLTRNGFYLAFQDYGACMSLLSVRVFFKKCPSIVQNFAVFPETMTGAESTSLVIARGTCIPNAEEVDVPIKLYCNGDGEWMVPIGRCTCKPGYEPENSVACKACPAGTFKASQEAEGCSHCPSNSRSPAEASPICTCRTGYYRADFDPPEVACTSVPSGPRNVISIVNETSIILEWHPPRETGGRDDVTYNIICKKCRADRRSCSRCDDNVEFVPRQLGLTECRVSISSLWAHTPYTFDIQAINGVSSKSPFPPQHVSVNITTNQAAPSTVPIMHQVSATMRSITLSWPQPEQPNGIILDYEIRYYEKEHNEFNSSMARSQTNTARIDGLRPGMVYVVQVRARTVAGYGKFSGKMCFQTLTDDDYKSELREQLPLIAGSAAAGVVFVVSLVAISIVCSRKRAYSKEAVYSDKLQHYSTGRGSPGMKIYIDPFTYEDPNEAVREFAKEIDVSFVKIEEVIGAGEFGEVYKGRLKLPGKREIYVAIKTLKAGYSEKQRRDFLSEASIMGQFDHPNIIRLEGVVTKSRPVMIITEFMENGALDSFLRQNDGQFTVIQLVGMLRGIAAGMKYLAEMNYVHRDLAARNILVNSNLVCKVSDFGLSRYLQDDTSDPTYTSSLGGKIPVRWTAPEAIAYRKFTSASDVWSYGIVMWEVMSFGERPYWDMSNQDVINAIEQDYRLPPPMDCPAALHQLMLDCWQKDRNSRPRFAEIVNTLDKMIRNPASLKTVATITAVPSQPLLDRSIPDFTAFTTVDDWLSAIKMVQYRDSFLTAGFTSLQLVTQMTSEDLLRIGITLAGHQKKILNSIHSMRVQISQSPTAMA
FGFR3, sequence (P22607 whole entry, looked up): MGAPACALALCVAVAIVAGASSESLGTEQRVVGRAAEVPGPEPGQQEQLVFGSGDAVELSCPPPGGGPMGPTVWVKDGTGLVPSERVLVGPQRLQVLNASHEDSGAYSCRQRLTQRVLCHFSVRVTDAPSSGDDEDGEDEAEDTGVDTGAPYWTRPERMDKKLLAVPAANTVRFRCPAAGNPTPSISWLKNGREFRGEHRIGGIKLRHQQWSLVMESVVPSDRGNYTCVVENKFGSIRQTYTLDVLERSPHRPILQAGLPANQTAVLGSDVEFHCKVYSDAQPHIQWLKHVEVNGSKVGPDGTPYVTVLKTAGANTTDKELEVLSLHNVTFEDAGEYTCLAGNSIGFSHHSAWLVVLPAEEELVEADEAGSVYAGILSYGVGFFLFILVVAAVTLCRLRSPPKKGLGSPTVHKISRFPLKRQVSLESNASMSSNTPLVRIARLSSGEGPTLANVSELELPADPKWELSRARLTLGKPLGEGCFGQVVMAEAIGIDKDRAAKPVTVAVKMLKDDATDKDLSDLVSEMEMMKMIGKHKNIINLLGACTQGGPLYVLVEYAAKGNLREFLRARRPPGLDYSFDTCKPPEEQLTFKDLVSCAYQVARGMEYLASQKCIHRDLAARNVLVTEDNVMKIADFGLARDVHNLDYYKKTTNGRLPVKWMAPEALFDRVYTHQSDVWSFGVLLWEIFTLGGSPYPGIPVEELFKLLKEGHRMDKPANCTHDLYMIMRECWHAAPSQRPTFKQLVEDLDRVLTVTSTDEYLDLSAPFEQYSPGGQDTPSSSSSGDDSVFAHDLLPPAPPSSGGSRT

| Sequence | SH2 binding enrichment (SHP2-C SH2) | SH2 binding enrichment (c-Src SH2) | SH2 binding enrichment (Grb2 SH2) | phosphorylation enrichment (MERTK) | phosphorylation enrichment (Jak2) | phosphorylation enrichment (FGFR3) | phosphorylation enrichment (AncSZ) | phosphorylation enrichment (EPHB2) | phosphorylation enrichment (Fer (mouse)) | phosphorylation enrichment (EPHB1) | phosphorylation enrichment (Fes) | phosphorylation enrichment (c-Abl (mouse)) | phosphorylation enrichment (c-Src) | phosphorylation enrichment (FGFR1) | phosphorylation enrichment (Hck) | phosphorylation enrichment (Fyn) |
| --- | --- | --- | --- | --- | --- | --- | --- | --- | --- | --- | --- | --- | --- | --- | --- | --- |
| NLNGKCNKPRA [ANGPTL3_Y417_Y417C] | 1.24 | 0.496 | 1.23 | 0.44 | 0.435 | 0.446 | 0.596 | 0.41 | 0.64 | 0.322 | 0.558 | 0.388 | 0.393 | 0.39 | 0.347 | 0.422 |
| NMSRIYSTTKV [ACE_Y151_A154T] | 1.06 | 0.396 | 0.972 | 0.366 | 0.421 | 0.36 | 0.441 | 0.302 | 0.319 | 0.296 | 0.443 | 0.583 | 0.431 | 0.341 | 0.382 | 0.425 |
| NRKGKYFNVER [ANAPC4_Y469] | 0.51 | 0.299 | 0.498 | 0.411 | 0.379 | 0.451 | 0.478 | 0.448 | 0.351 | 0.367 | 0.575 | 0.631 | 0.487 | 0.473 | 0.695 | 0.386 |
| NRNVRYLTLDI [AKR1C2_Y305] | 6.75 | 1.96 | 1.03 | 0.497 | 0.835 | 0.499 | 0.744 | 0.506 | 0.395 | 0.392 | 0.921 | 0.635 | 0.441 | 0.507 | 0.523 | 0.381 |
| NSAFFYKTAEE [CCT6B_Y250_G247A] | 0.923 | 0.565 | 1.19 | 0.439 | 0.927 | 0.696 | 0.962 | 0.472 | 0.47 | 0.521 | 1.23 | 0.593 | 0.38 | 0.452 | 0.496 | 0.524 |
| NSFKYYMSDDI [ATRX_Y204_C200S] | 0.746 | 1.05 | 0.943 | 0.451 | 0.871 | 0.659 | 0.87 | 0.542 | 0.501 | 0.503 | 1.01 | 0.627 | 0.499 | 0.567 | 0.443 | 0.434 |
| PAIFTYDEFKK [COL8A2_Y648_T645I_YF] | 0.888 | 0.509 | 0.829 | 0.594 | 1.12 | 0.501 | 1.47 | 0.359 | 0.304 | 0.398 | 1.11 | 1.03 | 3 | 0.374 | 1.66 | 0.952 |
| PATFTYDEFKK [COL8A2_Y648_YF] | 0.53 | 0.791 | 1.03 | 0.677 | 1.3 | 1.12 | 1.49 | 1.24 | 1.68 | 1.38 | 1.43 | 0.864 | 1.68 | 0.77 | 2.06 | 1.9 |
| PAVGIYNGNIN [CDCP1_Y707_D709G] | 0.708 | 0.44 | 0.696 | 0.574 | 1.15 | 0.884 | 0.67 | 0.652 | 0.588 | 0.605 | 1.15 | 1.08 | 1.64 | 0.396 | 1.55 | 1.49 |
| PEEKVYLSRGD [CRACR2A_Y141_H136P] | 0.529 | 0.457 | 0.804 | 0.735 | 1.22 | 1.29 | 1.44 | 0.573 | 0.778 | 1.06 | 1.77 | 1.35 | 1.01 | 0.706 | 1.1 | 0.88 |
| PEFINYHQHNS [BTK_Y361_L358F] | 0.659 | 0.608 | 0.659 | 0.507 | 0.933 | 0.947 | 0.709 | 0.515 | 0.335 | 0.299 | 0.607 | 0.491 | 1.03 | 0.821 | 0.485 | 0.552 |
| PFSEPYADFGG [APBA1_Y187_YF] | 0.659 | 0.868 | 0.862 | 0.76 | 0.991 | 0.957 | 1 | 0.488 | 0.719 | 0.543 | 1.29 | 1.38 | 3.39 | 1 | 0.786 | 1.15 |
| PGPPGYCDSSH [COL12A1_Y3043_Q3048H] | 0.671 | 0.498 | 1.08 | 0.84 | 1.16 | 0.941 | 1.09 | 0.514 | 0.542 | 0.724 | 1.62 | 1.21 | 0.727 | 0.512 | 1.58 | 0.46 |
| PKGIRYGQGAG [CSRP3_Y73_G72R] | 0.867 | 0.484 | 0.984 | 0.9 | 0.521 | 0.453 | 0.532 | 0.375 | 0.349 | 0.502 | 0.504 | 0.927 | 0.585 | 0.339 | 0.587 | 0.411 |

Continued, in another order:

| SH2 binding enrichment (SHP2-C SH2) | SH2 binding enrichment (c-Src SH2) | SH2 binding enrichment (Grb2 SH2) | Sequence | phosphorylation enrichment (MERTK) | phosphorylation enrichment (Jak2) | phosphorylation enrichment (FGFR3) | phosphorylation enrichment (AncSZ) | phosphorylation enrichment (EPHB2) | phosphorylation enrichment (Fer (mouse)) | phosphorylation enrichment (EPHB1) | phosphorylation enrichment (Fes) | phosphorylation enrichment (c-Abl (mouse)) | phosphorylation enrichment (c-Src) | phosphorylation enrichment (FGFR1) | phosphorylation enrichment (Hck) | phosphorylation enrichment (Fyn) |
| --- | --- | --- | --- | --- | --- | --- | --- | --- | --- | --- | --- | --- | --- | --- | --- | --- |
| 1.06 | 0.678 | 0.877 | NKKFHYRELPV [ERN2_Y860_H858Y_YF] | 0.306 | 0.372 | 0.45 | 0.459 | 0.351 | 0.374 | 0.362 | 0.508 | 0.407 | 0.266 | 0.368 | 0.332 | 0.419 |
| 1.22 | 1.57 | 1.64 | NKVKFYIPFMN [NCR1_Y84_D87Y_YF] | 0.482 | 0.824 | 0.519 | 0.897 | 0.528 | 0.507 | 0.551 | 1.02 | 0.699 | 0.413 | 0.431 | 0.436 | 0.437 |
| 1.65 | 1.51 | 1.74 | NKVKFYIPYMN [NCR1_Y84_D87Y] | 0.473 | 0.893 | 0.655 | 0.919 | 0.496 | 0.469 | 0.599 | 1.06 | 0.609 | 0.495 | 0.483 | 0.431 | 0.394 |
| 0.602 | 0.573 | 0.814 | NLGQQYNSPQE [UMPS_Y432] | 0.413 | 0.78 | 0.675 | 0.895 | 0.579 | 0.498 | 0.563 | 0.974 | 0.634 | 0.374 | 0.614 | 0.502 | 0.495 |
| 0.766 | 0.448 | 0.72 | NLPGGYSGSVK [MCPH1_Y606] | 0.371 | 0.618 | 0.425 | 0.595 | 0.455 | 0.375 | 0.407 | 0.652 | 0.747 | 0.46 | 0.374 | 0.447 | 0.484 |
| 0.852 | 0.415 | 0.635 | NPIGLYSAEIL [LDB3_Y202_T206I] | 6.37 | 0.876 | 0.562 | 0.751 | 2.6 | 3.44 | 3 | 0.879 | 0.568 | 1.11 | 0.419 | 1.04 | 0.839 |
| 0.769 | 0.472 | 0.834 | NREGVYTVSAP [TGFBI_Y537_F540S] | 1.16 | 0.719 | 0.523 | 0.757 | 0.517 | 1.12 | 0.537 | 0.705 | 0.565 | 8.38 | 0.462 | 2.34 | 10.9 |
| 0.663 | 0.769 | 0.755 | NSNAAYEQSHF [LRIF1_Y714] | 0.388 | 0.418 | 0.55 | 0.575 | 0.479 | 0.417 | 0.327 | 0.616 | 0.574 | 0.395 | 0.48 | 0.445 | 0.504 |
| 0.911 | 0.644 | 0.962 | NSRYTYKLEVK [USH2A_Y3747] | 0.396 | 0.982 | 0.687 | 1.12 | 0.689 | 0.505 | 0.618 | 1.29 | 0.795 | 0.42 | 0.427 | 0.478 | 0.437 |
| 0.531 | 2.11 | 0.795 | NYAKMYCNPDA [KNL1_Y489] | 0.498 | 1.17 | 0.667 | 1.12 | 0.608 | 0.59 | 0.673 | 1.1 | 0.989 | 0.626 | 0.561 | 0.518 | 0.463 |
| 1.03 | 6.34 | 14.1 | PFSSPYENSLI [EPOR_Y489_N487S_YF] | 0.891 | 0.941 | 1.3 | 1.4 | 1.15 | 3.51 | 1.24 | 1.42 | 0.705 | 0.674 | 0.604 | 1.21 | 1.34 |
| 0.913 | 0.496 | 1.04 | PFVFFYSFLLK [PTEN_Y178_R173P_YF] | 0.931 | 2.1 | 1.25 | 1.99 | 0.686 | 0.983 | 1.07 | 2.12 | 1.52 | 0.577 | 0.751 | 0.983 | 0.679 |
| 1.64 | 0.611 | 0.849 | PGVNYYFRVSA | 0.448 | 1.26 | 1.01 | 1.11 | 0.706 | 0.466 | 0.715 | 1.08 | 0.79 | 0.331 | 0.787 | 0.469 | 0.466 |
| 0.624 | 0.541 | 0.766 | PKEEPYKMQEK [SLC5A3_Y565_Q566K] | 0.467 | 0.892 | 0.587 | 0.885 | 0.403 | 0.612 | 0.544 | 1.21 | 0.969 | 0.607 | 0.565 | 0.415 | 0.386 |
| 0.781 | 0.786 | 0.86 | PLCPDYQEPSR [DDR2_Y481_R478C] | 0.854 | 1.23 | 1.46 | 3.5 | 2.01 | 0.999 | 1.43 | 2 | 0.896 | 0.61 | 0.643 | 1.01 | 1.12 |
| 0.836 | 0.387 | 0.762 | PLDGEYFSLQI [TP53_Y327_T329S] | 0.737 | 5.35 | 4.26 | 3.12 | 1.24 | 0.749 | 1.15 | 2.23 | 2.77 | 5.24 | 6.64 | 1.76 | 3.53 |
| 0.647 | 0.72 | 0.714 | PLKFLYPNIDK [STAT1_Y668_YF] | 0.846 | 1.65 | 0.822 | 1.26 | 1.3 | 1.13 | 0.945 | 2.18 | 1.38 | 0.939 | 1.54 | 1.09 | 1.16 |
| 0.735 | 0.825 | 0.785 | PLKYLYPNIDK [STAT1_Y668] | 0.786 | 1 | 0.614 | 0.88 | 0.69 | 0.614 | 0.638 | 0.896 | 0.775 | 0.461 | 0.41 | 0.782 | 0.564 |
| 0.623 | 1.37 | 0.78 | PLQKTYNYNML [SLC4A1_Y553_V557M] | 0.52 | 0.649 | 0.678 | 0.878 | 1.03 | 0.395 | 0.76 | 1.01 | 0.816 | 0.52 | 0.589 | 0.578 | 0.39 |
